Source: patent publication US20100216715A1 (Novo Nordisk, published 2010)

T1: human beta-Klotho (human, UniProt Q86Z14 1-1044)
T1 sequence (looked up): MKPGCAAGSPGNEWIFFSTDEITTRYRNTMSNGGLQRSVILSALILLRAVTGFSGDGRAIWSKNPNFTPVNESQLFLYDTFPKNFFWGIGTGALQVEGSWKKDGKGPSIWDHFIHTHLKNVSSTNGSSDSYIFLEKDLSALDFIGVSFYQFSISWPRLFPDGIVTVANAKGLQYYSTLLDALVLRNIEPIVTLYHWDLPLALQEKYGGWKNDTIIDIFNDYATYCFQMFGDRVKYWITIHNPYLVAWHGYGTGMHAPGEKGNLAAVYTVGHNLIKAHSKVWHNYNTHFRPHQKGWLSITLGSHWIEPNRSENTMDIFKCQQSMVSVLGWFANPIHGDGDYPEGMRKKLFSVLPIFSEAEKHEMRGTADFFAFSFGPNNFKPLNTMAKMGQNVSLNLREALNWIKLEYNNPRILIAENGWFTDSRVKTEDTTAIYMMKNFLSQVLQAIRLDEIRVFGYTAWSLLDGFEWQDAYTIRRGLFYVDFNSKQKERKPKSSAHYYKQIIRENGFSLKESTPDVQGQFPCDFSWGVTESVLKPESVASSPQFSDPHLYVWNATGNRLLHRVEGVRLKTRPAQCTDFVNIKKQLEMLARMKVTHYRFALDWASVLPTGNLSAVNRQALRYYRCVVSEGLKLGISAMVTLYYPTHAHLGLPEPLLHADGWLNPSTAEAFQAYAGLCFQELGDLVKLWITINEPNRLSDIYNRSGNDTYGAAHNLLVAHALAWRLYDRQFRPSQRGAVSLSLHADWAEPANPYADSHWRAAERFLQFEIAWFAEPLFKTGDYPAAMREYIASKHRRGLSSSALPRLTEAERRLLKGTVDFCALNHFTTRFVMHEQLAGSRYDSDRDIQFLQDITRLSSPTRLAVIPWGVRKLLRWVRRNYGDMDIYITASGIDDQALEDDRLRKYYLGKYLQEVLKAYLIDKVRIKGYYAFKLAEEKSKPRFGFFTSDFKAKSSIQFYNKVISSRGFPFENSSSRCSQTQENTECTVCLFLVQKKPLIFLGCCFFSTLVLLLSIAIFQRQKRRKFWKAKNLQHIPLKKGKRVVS


Biological target: T1, human beta-Klotho
Experiment: cell-based or functional assay

Row | Molecule | pERK-HEK293-Beta-klotho without HSA [EC50 (nM)] Median Value [nM]
1 | (P143V, A145E, L146E, 148aD, P149L, P150R, I152H, 153aE, 153bS, 153cD, 153dM, A154F, P155S, Q156S, P158L, D159E, V160T, G161D, S163M, L166F, S167G, M168L, 169aT, P171L, S172E, Q173A, G174V, Y179F, A180E, S181K) Met-FGF21 (ligand) | 9.5
2 | (K56R, K59R, K69R, K122R, L166F, S167G, M168L, 169aT, P171L, S172E, Q173A, G174V, Y179F, A180E, S181R) Gly-FGF21 (ligand) GHPIPDSSPLLQFGGQVRQRYLYTDDAQQTEAHLEIREDGTVGGAADQSPESLLQLRALRPGVIQILGVRTSRFLCQRPDGALYGSLHFDPEACSFRELLLEDGYNVYQSEAHGLPLHLPGNRSPHRDPAPRGPARFLPLPGLPPALPEPPGILAPQPPDVGSSDPFGLVTGLEAVRSPSFER | 3.3
3 | (K56R, 59R, 69R, 122R, 166F, 167G, 168L, 169aT, 171L, 172E, 173A, 174V, 179F, 180E, 181R) Gly-FGF21 derivative of Example 49 (ligand, N-alpha-1-[2-(2-{2-[2-(2-{2-[(S)-4-carboxy-4-(17-carboxy-heptadecanoylamino)-butyrylamino]-ethoxy}-ethoxy)-acetylamino]-ethoxy}-ethoxy)-acetyl] on the N-terminal alpha amino group) GHPIPDSSPLLQFGGQVRQRYLYTDDAQQTEAHLEIREDGTVGGAADQSPESLLQLRALRPGVIQILGVRTSRFLCQRPDGALYGSLHFDPEACSFRELLLEDGYNVYQSEAHGLPLHLPGNRSPHRDPAPRGPARFLPLPGLPPALPEPPGILAPQPPDVGSSDPFGLVTGLEAVRSPSFER | 1.2
4 | (S71C, D102E, N121Q, L166F, S167G, M168L, 169aT, P171L, S172E, Q173A, G174V, Y179F, A180E, S181K) Gly-FGF21 (ligand) GHPIPDSSPLLQFGGQVRQRYLYTDDAQQTEAHLEIREDGTVGGAADQSPESLLQLKALKPGVIQILGVKTCRFLCQRPDGALYGSLHFDPEACSFRELLLEEGYNVYQSEAHGLPLHLPGQKSPHRDPAPRGPARFLPLPGLPPALPEPPGILAPQPPDVGSSDPFGLVTGLEAVRSPSFEK | 1.8
5 | (S71C, N121Q, L166F, S167G, M168L, 169aT, P171L, S172E, Q173A, G174V, Y179F, A180E, S181K) Gly-FGF21 (ligand) GHPIPDSSPLLQFGGQVRQRYLYTDDAQQTEAHLEIREDGTVGGAADQSPESLLQLKALKPGVIQILGVKTCRFLCQRPDGALYGSLHFDPEACSFRELLLEDGYNVYQSEAHGLPLHLPGQKSPHRDPAPRGPARFLPLPGLPPALPEPPGILAPQPPDVGSSDPFGLVTGLEAVRSPSFEK | 1.1
6 | (-1G, 71C, 121Q, 166F, 167G, 168L, 169aT, 171L, 172E, 173A, 174V, 179F, 180E, 181K) FGF21 derivative of Example 16 (ligand, S-71-({2-[2-(2-{2-[2-(2-{2-[(S)-4-carboxy-4-(17-carboxy-heptadecanoylamino)-butyrylamino]-ethoxy}-ethoxy)-acetylamino]-ethoxy}-ethoxy)-acetylamino]-ethylcarbamoyl}-methyl) on the thiol of Cys71) GHPIPDSSPLLQFGGQVRQRYLYTDDAQQTEAHLEIREDGTVGGAADQSPESLLQLKALKPGVIQILGVKTCRFLCQRPDGALYGSLHFDPEACSFRELLLEDGYNVYQSEAHGLPLHLPGQKSPHRDPAPRGPARFLPLPGLPPALPEPPGILAPQPPDVGSSDPFGLVTGLEAVRSPSFEK | 1.4
7 | (K56R, K59R, K69R, K122R) EEAEAGGAGGSGGS-FGF21 (ligand) EEAEAGGAGGSGGSHPIPDSSPLLQFGGQVRQRYLYTDDAQQTEAHLEIREDGTVGGAADQSPESLLQLRALRPGVIQILGVRTSRFLCQRPDGALYGSLHFDPEACSFRELLLEDGYNVYQSEAHGLPLHLPGNRSPHRDPAPRGPARFLPLPGLPPALPEPPGILAPQPPDVGSSDPLSMVGPSQGRSPSYAS | 2
8 | Met-FGF21 (ligand) MHPIPDSSPLLQFGGQVRQRYLYTDDAQQTEAHLEIREDGTVGGAADQSPESLLQLKALKPGVIQILGVKTSRFLCQRPDGALYGSLHFDPEACSFRELLLEDGYNVYQSEAHGLPLHLPGNKSPHRDPAPRGPARFLPLPGLPPALPEPPGILAPQPPDVGSSDPLSMVGPSQGRSPSYAS | 1.6
9 | (K56R, K59R, K69R, K122R) Gly-FGF21 (ligand) GHPIPDSSPLLQFGGQVRQRYLYTDDAQQTEAHLEIREDGTVGGAADQSPESLLQLRALRPGVIQILGVRTSRFLCQRPDGALYGSLHFDPEACSFRELLLEDGYNVYQSEAHGLPLHLPGNRSPHRDPAPRGPARFLPLPGLPPALPEPPGILAPQPPDVGSSDPLSMVGPSQGRSPSYAS | 7.4
10 | (K56R, K59R, K69R, K122R) Gly-FGF21 derivative of Example 54 (ligand, N-alpha1-[4-(16-1H-tetrazol-5-yl-hexadecanoylsulfamoyl)-butyryl] on the N-terminal alpha amino group) GHPIPDSSPLLQFGGQVRQRYLYTDDAQQTEAHLEIREDGTVGGAADQSPESLLQLRALRPGVIQILGVRTSRFLCQRPDGALYGSLHFDPEACSFRELLLEDGYNVYQSEAHGLPLHLPGNRSPHRDPAPRGPARFLPLPGLPPALPEPPGILAPQPPDVGSSDPLSMVGPSQGRSPSYAS | 4.2
11 | (K56R, 59R, 69R, 122R, 168L) Gly-FGF21 derivative of Example 48 (ligand, N-alpha-1-[2-(2-{2-[2-(2-{2-[(S)-4-carboxy-4-(17-carboxy-heptadecanoylamino)-butyrylamino]-ethoxy}-ethoxy)-acetylamino]-ethoxy}-ethoxy)-acetyl] on the N-terminal alpha amino group) GHPIPDSSPLLQFGGQVRQRYLYTDDAQQTEAHLEIREDGTVGGAADQSPESLLQLRALRPGVIQILGVRTSRFLCQRPDGALYGSLHFDPEACSFRELLLEDGYNVYQSEAHGLPLHLPGNRSPHRDPAPRGPARFLPLPGLPPALPEPPGILAPQPPDVGSSDPLSLVGPSQGRSPSYAS | 4.6
12 | (S71C) Gly-FGF21 (ligand) GHPIPDSSPLLQFGGQVRQRYLYTDDAQQTEAHLEIREDGTVGGAADQSPESLLQLKALKPGVIQILGVKTCRFLCQRPDGALYGSLHFDPEACSFRELLLEDGYNVYQSEAHGLPLHLPGNKSPHRDPAPRGPARFLPLPGLPPALPEPPGILAPQPPDVGSSDPLSMVGPSQGRSPSYAS | 2.5
13 | (K56R, K59R, K69R, K122R) Gly-FGF21 derivative of Example 46 (ligand, N-alpha-1-[2-(2-{2-[2-(2-{2-[(S)-4-carboxy-4-(17-carboxy-heptadecanoylamino)-butyrylamino]-ethoxy}-ethoxy)-acetylamino]-ethoxy}-ethoxy)-acetyl] on the N-terminal alpha amino group) GHPIPDSSPLLQFGGQVRQRYLYTDDAQQTEAHLEIREDGTVGGAADQSPESLLQLRALRPGVIQILGVRTSRFLCQRPDGALYGSLHFDPEACSFRELLLEDGYNVYQSEAHGLPLHLPGNRSPHRDPAPRGPARFLPLPGLPPALPEPPGILAPQPPDVGSSDPLSMVGPSQGRSPSYAS | 3.9
14 | (K56R, K59R, K69R, K122R) Gly-FGF21 derivative of Example 53 (ligand, N-alpha-1-(2-{2-[2-(16-1H-tetrazol-5-yl-hexadecanoylamino)-ethoxy]-ethoxy}-acetyl) on the N-terminal alpha amino group) GHPIPDSSPLLQFGGQVRQRYLYTDDAQQTEAHLEIREDGTVGGAADQSPESLLQLRALRPGVIQILGVRTSRFLCQRPDGALYGSLHFDPEACSFRELLLEDGYNVYQSEAHGLPLHLPGNRSPHRDPAPRGPARFLPLPGLPPALPEPPGILAPQPPDVGSSDPLSMVGPSQGRSPSYAS | 6.4
15 | (A26E, K56R, K59R, K69R, D102T, N121Q, K122R, Y179F, A180E, S181R) Gly-FGF21 (ligand) GHPIPDSSPLLQFGGQVRQRYLYTDDEQQTEAHLEIREDGTVGGAADQSPESLLQLRALRPGVIQILGVRTSRFLCQRPDGALYGSLHFDPEACSFRELLLETGYNVYQSEAHGLPLHLPGQRSPHRDPAPRGPARFLPLPGLPPALPEPPGILAPQPPDVGSSDPLSMVGPSQGRSPSFER | 44
16 | (Q27E, K56R, K59R, K69R, D102T, N121Q, K122R, Y179F, A180E, S181R) Gly-FGF21 (ligand) GHPIPDSSPLLQFGGQVRQRYLYTDDAEQTEAHLEIREDGTVGGAADQSPESLLQLRALRPGVIQILGVRTSRFLCQRPDGALYGSLHFDPEACSFRELLLETGYNVYQSEAHGLPLHLPGQRSPHRDPAPRGPARFLPLPGLPPALPEPPGILAPQPPDVGSSDPLSMVGPSQGRSPSFER | 36
17 | [28R, K56R, 59R, 69R, 102T, 121Q, 122R, 168L, 179F, 180E, 181R] Gly-FGF21 derivative of Example 47 (ligand, N-alpha-1-[2-(2-{2-[2-(2-{2-[(S)-4-carboxy-4-(17-carboxy-heptadecanoylamino)-butyrylamino]-ethoxy}-ethoxy)-acetylamino]-ethoxy}-ethoxy)-acetyl] on the N-terminal alpha amino group) GHPIPDSSPLLQFGGQVRQRYLYTDDAQRTEAHLEIREDGTVGGAADQSPESLLQLRALRPGVIQILGVRTSRFLCQRPDGALYGSLHFDPEACSFRELLLETGYNVYQSEAHGLPLHLPGQRSPHRDPAPRGPARFLPLPGLPPALPEPPGILAPQPPDVGSSDPLSLVGPSQGRSPSFER | 10
18 | (Q28R, K56R, K59R, K69R, D102T, N121Q, K122R, L166F, S167G, M168L, G170T) Gly-FGF21 (ligand) GHPIPDSSPLLQFGGQVRQRYLYTDDAQRTEAHLEIREDGTVGGAADQSPESLLQLRALRPGVIQILGVRTSRFLCQRPDGALYGSLHFDPEACSFRELLLETGYNVYQSEAHGLPLHLPGQRSPHRDPAPRGPARFLPLPGLPPALPEPPGILAPQPPDVGSSDPFGLVTPSQGRSPSYAS | 1
19 | (Q28R, K56R, K59R, K69R, D102T, N121Q, K122R, D159E, M168L, G174A, Y179F) Gly-FGF21 (ligand) GHPIPDSSPLLQFGGQVRQRYLYTDDAQRTEAHLEIREDGTVGGAADQSPESLLQLRALRPGVIQILGVRTSRFLCQRPDGALYGSLHFDPEACSFRELLLETGYNVYQSEAHGLPLHLPGQRSPHRDPAPRGPARFLPLPGLPPALPEPPGILAPQPPEVGSSDPLSLVGPSQARSPSFAS | 15
20 | (Q28R, K56R, K59R, K69R, D102T, N121Q, K122R, M168L, Y179F, A180E, S181R) Gly-FGF21 (ligand) GHPIPDSSPLLQFGGQVRQRYLYTDDAQRTEAHLEIREDGTVGGAADQSPESLLQLRALRPGVIQILGVRTSRFLCQRPDGALYGSLHFDPEACSFRELLLETGYNVYQSEAHGLPLHLPGQRSPHRDPAPRGPARFLPLPGLPPALPEPPGILAPQPPDVGSSDPLSLVGPSQGRSPSFER | 29
